Here are results for one substance from publication PMC3025062.

This assay addresses cis-3-chloroacrylic acid dehalogenase (native). Put plainly: crystal structure.

Broadly, the stoichiometry N is a count of units in the complex or per binding partner. On to “cis-3-chloroacrylic acid dehalogenase (native) (enzyme)”, for which the stoichiometry N came to 3.
